B1: KCNA1 (parent)
chain: LKASMRELGLLIFFLFIGVILFSS
B2: ATE1 (parent)
chain: YGSFHQQYWLDGKIIAVGVIDILP
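Further: lentivirally expressed fusions sorted by FACS into six bins by GFP to DsRed ratio, PSI derived from sequencing read proportions per bin multiplied by bin number.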

The first data set covers variants of B1. Put plainly: protein stability index of a GFP-peptide fusion (GPS, HEK-293T) (PSI 1-6); higher = more stable. The note with it: c terminus: a fixed tail appended.
LYASMRELGLLIFFLFIGVILFSS [K2Y]: the protein stability index is 2.35. Same read-out and setting: with LEASMRELGLLIFFLFIGVILFSS [K2E] the figure was 3.11; with LQASMRELGLLIFFLFIGVILFSS [K2Q], 3.04; with LIASMRELGLLIFFLFIGVILFSS [K2I], 2.79. The same measure, in the same setting: the value for LPASMRELGLLIFFLFIGVILFSS [K2P] was 2.02. The same measure, in the same setting: the value for LWASMRELGLLIFFLFIGVILFSS [K2W] was 2.4; that for LMASMRELGLLIFFLFIGVILFSS [K2M] was 2.15; that for LHASMRELGLLIFFLFIGVILFSS [K2H] was 2.54.

Consider LFASMRELGLLIFFLFIGVILFSS [K2F], for which the protein stability index was found to be 2. Still for that read-out and setting: the value for LLASMRELGLLIFFLFIGVILFSS [K2L] was 1.81; that for LSASMRELGLLIFFLFIGVILFSS [K2S] was 2.19. For the variant LCASMRELGLLIFFLFIGVILFSS [K2C], the protein stability index was found to be 1.28.

Take LVASMRELGLLIFFLFIGVILFSS [K2V]: the protein stability index is 3.35. On the same count and under the same terms, the value for LAASMRELGLLIFFLFIGVILFSS [K2A] was 3.41; that for LRASMRELGLLIFFLFIGVILFSS [K2R] was 2.32.

For LGASMRELGLLIFFLFIGVILFSS [K2G], the protein stability index was found to be 2.49. The same measure, in the same setting: with LNASMRELGLLIFFLFIGVILFSS [K2N] the figure was 2.18.

LTASMRELGLLIFFLFIGVILFSS [K2T]: the protein stability index is 2.01. On the same count and under the same terms, with LDASMRELGLLIFFLFIGVILFSS [K2D] the figure was 2.89; with RKASMRELGLLIFFLFIGVILFSS [L1R], 1.4. Same read-out and setting: with SKASMRELGLLIFFLFIGVILFSS [L1S] the figure was 1.05. Still for that read-out and setting: the value for EKASMRELGLLIFFLFIGVILFSS [L1E] was 1.93; that for NKASMRELGLLIFFLFIGVILFSS [L1N] was 2.84; that for QKASMRELGLLIFFLFIGVILFSS [L1Q] was 2.04.

Take GKASMRELGLLIFFLFIGVILFSS [L1G]: the protein stability index was found to be 3. Turning to AKASMRELGLLIFFLFIGVILFSS [L1A], the protein stability index worked out at 2.05. Same read-out and setting: the value for YKASMRELGLLIFFLFIGVILFSS [L1Y] was 2.76. Take PKASMRELGLLIFFLFIGVILFSS [L1P]: the protein stability index was found to be 1.82. On the same count and under the same terms, the value for TKASMRELGLLIFFLFIGVILFSS [L1T] was 1.84; that for MKASMRELGLLIFFLFIGVILFSS [L1M] was 2.27. On the same count and under the same terms, the value for CKASMRELGLLIFFLFIGVILFSS [L1C] was 2.3; that for FKASMRELGLLIFFLFIGVILFSS [L1F] was 2.12. On the same count and under the same terms, the value for KKASMRELGLLIFFLFIGVILFSS [L1K] was 1.58. Take DKASMRELGLLIFFLFIGVILFSS [L1D]: the protein stability index came out at 3.09. For WKASMRELGLLIFFLFIGVILFSS [L1W], the protein stability index came to 1.56. The same measure, in the same setting: the value for HKASMRELGLLIFFLFIGVILFSS [L1H] was 3.89; that for IKASMRELGLLIFFLFIGVILFSS [L1I] was 2.29; that for VKASMRELGLLIFFLFIGVILFSS [L1V] was 1.88.

A further data set covers variants of B2. Described as above. The note with it: c terminus: a fixed tail appended.
For the variant YGSFHQQYWLDGKIIAVGEIDILP [V19E], the protein stability index came to 1.71.

Regarding YGSFHQQYWLDGKIIAVGKIDILP [V19K], the protein stability index is 1.77. Same read-out and setting: the value for YGSFHQQYWLDGKIIAVGTIDILP [V19T] was 2.49; that for YGSFHQQYWLDGKIIAVGQIDILP [V19Q] was 2.97. As for YGSFHQQYWLDGKIIAVGLIDILP [V19L], the protein stability index was 2.41. For the variant YGSFHQQYWLDGKIIAVGCIDILP [V19C], the protein stability index is 2.56. For the variant YGSFHQQYWLDGKIIAVGPIDILP [V19P], the protein stability index stood at 3.09. Still for that read-out and setting: with YGSFHQQYWLDGKIIAVGIIDILP [V19I] the figure was 2.64; with YGSFHQQYWLDGKIIAVGWIDILP [V19W], 2.06; with YGSFHQQYWLDGKIIAVGAIDILP [V19A], 2.67. On the same count and under the same terms, with YGSFHQQYWLDGKIIAVGFIDILP [V19F] the figure was 3.06; with YGSFHQQYWLDGKIIAVGMIDILP [V19M], 2.91. The same measure, in the same setting: with YGSFHQQYWLDGKIIAVGSIDILP [V19S] the figure was 2.97; with YGSFHQQYWLDGKIIAVGDIDILP [V19D], 3.87; with YGSFHQQYWLDGKIIAVGRIDILP [V19R], 2.92. As to YGSFHQQYWLDGKIIAVGYIDILP [V19Y], the protein stability index was 2.91.

For YGSFHQQYWLDGKSIAVGVIDILP [I14S], the protein stability index is 1.85. YGSFHQQYWLDGKMIAVGVIDILP [I14M]: the protein stability index was determined as 4.33. Still for that read-out and setting: the value for YGSFHQQYWLDGKYIAVGVIDILP [I14Y] was 1.49; that for YGSFHQQYWLDGKEIAVGVIDILP [I14E] was 2.66; that for YGSFHQQYWLDGKNIAVGVIDILP [I14N] was 4.29. As for YGSFHQQYWLDGKGIAVGVIDILP [I14G], the protein stability index was determined as 2.26. The same measure, in the same setting: with YGSFHQQYWLDGKQIAVGVIDILP [I14Q] the figure was 2.72; with YGSFHQQYWLDGKAIAVGVIDILP [I14A], 3.24. Consider YGSFHQQYWLDGKWIAVGVIDILP [I14W], for which the protein stability index is 2.62. The same measure, in the same setting: with YGSFHQQYWLDGKPIAVGVIDILP [I14P] the figure was 2.95; with YGSFHQQYWLDGKTIAVGVIDILP [I14T], 2.75. Same read-out and setting: the value for YGSFHQQYWLDGKKIAVGVIDILP [I14K] was 2.41; that for YGSFHQQYWLDGKCIAVGVIDILP [I14C] was 2.81. With YGSFHQQYWLDGKIIAVGVIDALP [I22A], the protein stability index is 3.85.

Take YGSFHQQYWLDGKIIAVGVIDKLP [I22K]: the protein stability index was 1.43. The same measure, in the same setting: with YGSFHQQYWLDGKIIAVGVIDVLP [I22V] the figure was 2.14; with YGSFHQQYWLDGKIIAVGVIDPLP [I22P], 3.32. Still for that read-out and setting: the value for YGSFHQQYWLDGKIIAVGVIDYLP [I22Y] was 2.23; that for YGSFHQQYWLDGKIIAVGVIDDLP [I22D] was 2.81; that for YGSFHQQYWLDGKIIAVGVIDTLP [I22T] was 1.74. Still for that read-out and setting: the value for YGSFHQQYWLDGKIIAVGVIDMLP [I22M] was 3.15; that for YGSFHQQYWLDGKIIAVGVIDRLP [I22R] was 2.18; that for YGSFHQQYWLDGKIIAVGVIDQLP [I22Q] was 2.42.

On to YGSFHQQYWLDGKIIAVGVIDHLP [I22H], for which the protein stability index came out at 2.9.

Turning to YGSFHQQYWLDGKIIAVGVIDSLP [I22S], the protein stability index worked out at 3.81. On the same count and under the same terms, with YGSFHQQYWLDGKIIAVGVIDELP [I22E] the figure was 3.75; with YGSFHQQYWLDGKIIAVGVIDFLP [I22F], 2.93; with YGSFHQQYWLDGKIIAVGVIDWLP [I22W], 2.77. Same read-out and setting: the value for YGSFHQQYWLDGKIIAVGVIMILP [D21M] was 1.81; that for YGSFHQQYWLDGKIIAVGVIEILP [D21E] was 3.01. As to YGSFHQQYWLDGKIIAVGVITILP [D21T], the protein stability index stood at 3. On the same count and under the same terms, with YGSFHQQYWLDGKIIAVGVIVILP [D21V] the figure was 4.01; with YGSFHQQYWLDGKIIAVGVINILP [D21N], 2.85; with YGSFHQQYWLDGKIIAVGVIIILP [D21I], 2.97. Still for that read-out and setting: with YGSFHQQYWLDGKIIAVGVICILP [D21C] the figure was 3.23; with YGSFHQQYWLDGKIIAVGVIPILP [D21P], 2.97. Still for that read-out and setting: with YGSFHQQYWLDGKIIAVGVISILP [D21S] the figure was 3.23; with YGSFHQQYWLDGKIIAVGVIQILP [D21Q], 3.26; with YGSFHQQYWLDGKIIAVGVIWILP [D21W], 4.17. For the variant YGSFHQQYWLDGKIIAVGVIRILP [D21R], the protein stability index was 3.36.
